Measurements from US9377466B2, “Compounds and methods” (Modpro AB, priority 2010, dated 2016).
Read-outs that look alike come from different tables or passages of the source. Side chains are listed from the residue outwards. Ends that are not written are not given here. * marks the point of attachment. Benzoyl(4-SO2NH2) = NS(=O)(=O)c1ccc(C(=O)*)cc1; X1 = COc1ccc2cc(C(=O)*)c(=O)oc2c1; Ahx = NCCCCCC(=O)O

Legend:
thymidine kinase (TK) [1] = experiment: Fluorescence binding studies with TK; conditions: 2 μM peptide, one and two equivalents of TK
Protocol: Estimating that at least 60% of the peptides were then bearing the ligand, the solution was diluted to 2 μM concentration and the protein TK was added. The fluorescence response was screened after 15 min, 45 min, 2 hrs, and 20 hrs. A maximal response was seen after 2 hours of incubation time.
A NUNC™ polystyrene 384 well plate (100 μl-volume) and pipette-tips were coated with Pluronic® overnight, then washed with H2O and dried. The fluorescence-measurement was carried out in Tris-buffers (Buffer for TK-studies: 20 mM Tris/HCl, 0.4 M NaCl, 0.3 M imidazole, 2 mM DTT, 50% glycerol, pH 7.6). Assuming that at least 60% of the dT-binder was conjugated to the polypeptides (see 0), stock-solutions were prepared with a concentration of 60 μM. The concentration of the TK stock solution was 0.10 mM. A polypeptide concentration of 2 μM in […] was used. The protein was added to wells containing the peptide conjugates to give final TK concentrations of 2 or 4 μM. Fluorescence intensities of protein-binder mixtures were compared to intensities of binders without protein and a significant change in fluorescence intensity in the presence of one equivalent of protein, in comparison to that of binder without protein, was interpreted as complexation of target protein by the binder. Binders showing a change in intensity in the presence of 2 μM protein but no further change in intensity in the presence of 4 μM protein were considered “hits”.
The dansyl probe was excited at 335 nm and emission was recorded 420-600 nm. All measurements were performed at room temperature and were made in triplicates. The wells were read after 15 min, 45 min and 2 hours.

thymidine kinase (TK) [2] = experiment: Binding studies with TK in the presence of ATP (fluorescence, MALDI-TOF); conditions: for binding affinity to TK (in words): 1, 2 and 3 eq. TK, buffer with and without ATP; for time after which peptide is fully phosphorylated (MALDI-TOF): TK, buffer with ATP
Protocol: The fluorescence intensities were measured in presence of 1, 2 and 3 eq. TK in buffer with and without ATP. The introduction of ATP represents a realistic measurement situation as it is present in biological samples and is likely to react with the probe in the presence of TK. Data were collected 15 min, 45 min and 2 hrs after adding the enzyme. The samples for MALDI-TOF were collected appr. 5 mins, 45 mins and 2 hours after adding the enzyme to measure the change in masses.

[3] = CD spectroscopy, mean residue ellipticity of the sixteen scaffold polypeptides; format: physicochemical; conditions: error ±1000; for [θ]222 at high concentration: high concentration 30-230 μM as listed per peptide; for [θ]222 at low concentration: low concentration 1-5 μM as listed per peptide
Protocol: The mean residue ellipticities at 222 nm, [θ]222, □ of the sixteen scaffold polypeptides were recorded at two concentrations, approximately 30 μM and approximately 1 μM, to characterize the state of aggregation, cf.
The degree of helix formation is related to the monomer-dimer equilibrium since monomers are unordered with low helical content whereas dimers are highly helical. […] While the ^1H NMR spectra have not been recorded of all sequences and of all polypeptide conjugates, it is likely that the sequences presented here are best described as molten globules.

HCAI = target: T1, HCAI (Homo sapiens, UniProt P00915); conditions: literature, read-out: dissociation constant Kd for HCAI, cited from earlier work
T1 construct: purchased Sigma
T1 sequence (P00915 whole entry): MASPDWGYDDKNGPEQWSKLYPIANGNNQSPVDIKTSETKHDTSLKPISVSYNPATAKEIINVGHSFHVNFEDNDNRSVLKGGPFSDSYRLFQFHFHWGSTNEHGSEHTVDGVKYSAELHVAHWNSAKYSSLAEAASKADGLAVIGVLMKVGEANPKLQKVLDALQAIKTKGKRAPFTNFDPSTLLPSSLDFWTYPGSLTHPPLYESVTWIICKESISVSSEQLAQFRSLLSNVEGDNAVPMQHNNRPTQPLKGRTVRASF

[4] = tested on: human Carbonic Anhydrase (HCAI and HCAII); experiment: Extraction from lysed blood by binders on nanoparticles (SDS-PAGE, MS); format: binding; conditions: lysed fresh blood, silver stained gel
Protocol: The selected binders were resynthesized with an Acm-protected Cys residue in position 24. After removal of the Acm group the binders were immobilized on polystyrene nanoparticles coated with Pluronic® F108-PDS, by incubation for 1 hour in 10 mM Phosphate buffer at pH 7.4 containing 150 mM NaCl. The coating material forms monolayers of PEG equipped with activated disulfide groups that spontaneously react with free thiols under the release of 2-mercaptopyridine (Fromell, K., Hulting, G., Ilichev, A., Larsson, A. & Caldwell, K. C. Analytical Chemistry 79, 8601-07 (2007)).
Approximately 60 μL of freshly drawn blood was lysed by dilution in 240 μL of distilled water followed by centrifugation to remove cell debris. HCAII resides in the red blood cells and in order to access the protein, cells have to be lysed. The supernatant was isolated and incubated with the functionalized nanoparticles for 30 minutes to allow them to capture HCAII. The particles were washed three times in PBS, and centrifuged after each wash. The binders and the captured proteins were cleaved from the particles using dithiothreitol and separated from the particles by centrifugation. […]
There are two isoforms of human Carbonic Anhydrase, HCA I and HCAII, in blood. […] The bands from the gel were cut, […] digested and analysed by MALDI-TOF-MS, displaying that the bands contained both isoforms. […]

hAChE = conditions: known inhibitor, literature; cited from earlier work

Row | Compound | [θ]222 at high concentration [3] [deg cm^2 dmol^−1] | [θ]222 at low concentration [3] [deg cm^2 dmol^−1] | further results
1 | 4-C25L22-dT: polypeptide 4-C25L22 conjugated to deoxy-thymidine (dT) probe 19 (NAADLEARIRHLRERLAARGPKDAKQLAEQLARAFERFARAG; also: conjugated to deoxy-thymidine (dT) probe 19, site not given here) |  |  | classification in fluorescence screen (thymidine kinase (TK) [1]): not considered to be tight binders; binding affinity to TK (in words) (thymidine kinase (TK) [2]): generally good binding affinity; time after which peptide is fully phosphorylated (MALDI-TOF) (thymidine kinase (TK) [2]): 5 to 10 min
2 | 4-C15L8-dT: polypeptide 4-C15L8 conjugated to deoxy-thymidine (dT) probe 19 (NAADLEAKIRHLREKLAARGPRDAAQLAEQLARRFERFARAG; also: conjugated to deoxy-thymidine (dT) probe 19, site not given here) |  |  | classification in fluorescence screen (thymidine kinase (TK) [1]): not considered to be tight binders
3 | 1-C15L8: SEQ ID NO: 1 NEADLEAKIRHLAEKLEARGPEDAEQLAEQLARAFEAFARAG | −17800 | −25100 | 
4 | 3-C37L34: SEQ ID NO: 15 NAADLEAAIRHLAERLAARGPVDAAQLAEQLARKFEKFARAG | −22500 | −22200 | 
5 | 3-C10L17: SEQ ID NO: 7 NAADLEARIKHLAERLKARGPVDAAQLAEQLARAFEAFARAG | −22400 | −20700 | 
6 | benzenesulphonamidecarboxylic acid |  |  | Kd (HCAI; listed as benzenesulphonamide): 1000 to 4000 nM; Kd (HCAI): 1100 to 3900 nM
7 | 3-C15L8: SEQ ID NO: 3 NAADLEAKIRHLAEKLAARGPVDAAQLAEQLARRFEAFARAG | −23400 | −19700 | 
8 | 4-C37L34: SEQ ID NO: 16 NAADLEARIRHLRERLAARGPRDAAQLAEQLARKFEKFARAG | −19600 | −14900 | 
9 | 2-C37L34-dT: polypeptide 2-C37L34 conjugated to deoxy-thymidine (dT) probe 19 (NAADLEAAIRHLAERLAARGPVDAAQLAEQLAAKFEKFARAG; also: conjugated to deoxy-thymidine (dT) probe 19, site not given here) |  |  | classification in fluorescence screen (thymidine kinase (TK) [1]): not considered to be tight binders
10 | 1-C10L17: SEQ ID NO: 5 NAADLEAAIKHLAEALKERGPEDCEQLAEQLARAFEAFARAG | −18200 | −11800 | 
11 | 2-C15L8: SEQ ID NO: 2 NEADLEAKIRHLAEKLAARGPVDAAQLAEQLARAFEAFARAG | −24900 | −20800 | 
12 | 2-C37L34: SEQ ID NO: 14 NAADLEAAIRHLAERLAARGPVDAAQLAEQLAAKFEKFARAG | −23900 | −30300 | 
13 | 2-C10L17: SEQ ID NO: 6 NAADLEAAIKHLAEALKARGPVDAAQLAEQLARAFEAFARAG | −23400 | −20400 | 
14 | 3-C15L8-dT: polypeptide 3-C15L8 conjugated to deoxy-thymidine (dT) probe 19 (NAADLEAKIRHLAEKLAARGPVDAAQLAEQLARRFEAFARAG; also: conjugated to deoxy-thymidine (dT) probe 19, site not given here) |  |  | binding affinity to TK (in words) (thymidine kinase (TK) [2]): good but not as good as for 4-C10L17-dT; time after which peptide is fully phosphorylated (MALDI-TOF) (thymidine kinase (TK) [2]): 45 min
15 | 3-C25L22: SEQ ID NO: 11 NAADLEAAIRHLAERLAARGPKDAKQLAEQLARAFEAFARAG | −26400 | −23000 | 
16 | Ac-NAADLEAK([Ahx-Benzoyl(4-SO2NH2)])IRHLAEK(X1)LAARGPVDAAQLAEQLARRFEAFARAG-NH2 (C-terminus assumed) [3-C15L8-B] |  |  | proteins extracted from lysed blood [4]: extract Carbonic Anhydrases predominantly
17 | 3-C10L17-dT: polypeptide 3-C10L17 conjugated to deoxy-thymidine (dT) probe 19 (NAADLEARIKHLAERLKARGPVDAAQLAEQLARAFEAFARAG; also: conjugated to deoxy-thymidine (dT) probe 19, site not given here) |  |  | classification in fluorescence screen (thymidine kinase (TK) [1]): not considered to be tight binders
18 | 2-C25L22: SEQ ID NO: 10 NEADLEAAIRHLAEALAARGPKDAKQLAEQLARAFEAFARAG | −25000 | −24800 | 
19 | 1-C25L22: SEQ ID NO: 9 NEADLEAAIRHLAEALEARGPKDAKQLAEQLARAFEAFERAG | −24800 | −18000 | 
20 | 4-C25L22: SEQ ID NO: 12 NAADLEARIRHLRERLAARGPKDAKQLAEQLARAFERFARAG | −23700 | −18200 | 
21 | Nc1c2ccccc2nc2ccccc12 [9-aminoacridine] |  |  | reported affinity (hAChE): 30 to 100 nM
22 | 4-C15L8: SEQ ID NO: 4 NAADLEAKIRHLREKLAARGPRDAAQLAEQLARRFERFARAG | −22000 | −15300 | 
23 | 4-C10L17-dT: polypeptide 4-C10L17 conjugated to deoxy-thymidine (dT) probe 19 (NAADLEARIKHLRERLKARGPRDAAQLAEQLARAFERFARAG; also: conjugated to deoxy-thymidine (dT) probe 19, site not given here) |  |  | binding affinity to TK (in words) (thymidine kinase (TK) [2]): strong binding affinity; time after which peptide is fully phosphorylated (MALDI-TOF) (thymidine kinase (TK) [2]): 45 min
